Experimental data from publication PMC8536467 (Molecular cell, 2021).
Where no end group is shown, it is not given here. Me2 = dimethyl (dimethylated lysine)

Biological target: Human 53BP1-Tudor (residues 1484-1603) (human, UniProt Q12888 1484-1603)
Assay: ITC

Chain of Human 53BP1-Tudor (residues 1484-1603) (Q12888 1484-1603): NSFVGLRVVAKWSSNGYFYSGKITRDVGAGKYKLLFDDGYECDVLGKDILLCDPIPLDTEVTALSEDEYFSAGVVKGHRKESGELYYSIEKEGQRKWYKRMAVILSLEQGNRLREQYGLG

Kd | Binder
8 µM | TSRHKK(Me2)LMFK (peptide, UniProt P04637 377-386, looked up) [p53K382me2 peptide (residues 377-386)]
52 µM | SSHLK(Me2)SKKGQ (peptide, UniProt P04637 366-375, looked up) [p53K370me2 peptide (residues 366-375)]
